B1: TRIM63 (parent)
chain: QEKKLSFIEALIQQYQEQLDKSTK
B2: MFF (parent)
chain: DDLTVVDAASLRRQIIKLNRRLQL

Variants of: B1
Test: protein stability index of a GFP-peptide fusion (GPS, HEK-293T) (PSI 1-6); higher = more stable
Settings: c terminus: a fixed tail appended
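Also: lentivirally expressed fusions sorted by FACS into six bins by GFP to DsRed ratio, PSI derived from sequencing read proportions per bin multiplied by bin number.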

Protein stability index, by site and new letter:
K24: Y 1.36; P 3.33; I 1.95; D 3.66; Q 2.68; T 2.67; H 2.95; A 2.25; N 2.79; M 2.32; C 2.99; V 2.31; R 1.84; F 1.71; W 1.67; L 2.47; G 2.71; S 2.61; E 3.51
T23: V 2.67; S 2.7; R 2.66; A 2.75; M 1.92; Q 2.89; C 2.72; L 1.51; P 2.24; G 2.77; W 1.09; H 2.53; Y 2.26; N 2.31; I 1.84; E 2.57; D 3.33; K 2.49
S22: R 1.98; P 3.1; W 1.92; N 2.89; Q 2.43; V 2.45; K 2.52; M 2.65; T 2.75

Variants of: B2
Test: as above
Settings: c terminus: a fixed tail appended

Protein stability index of substitutions, site by site:
D7: Y 1.61; Q 2.17; G 2.71; T 1.64; W 1.92; H 3.12; K 1.89; S 2.24; M 2.19; P 2.71
R13: E 2.42; I 1.41; H 1.95; D 2.27; K 2.17; F 1.69; C 2.22; S 2.39; T 1.85; L 2.56; Y 1.7; M 2.54; V 2.55
R21: T 1.91; H 1.6; E 1.46; F 2.33; K 1.88; Q 1.84; Y 1.94; C 1.95; N 2.46; G 1.84; S 2.98; V 1.79; P 2.99; D 1.73
L24: N 2.35; W 1.94; I 2.32; G 2.56; P 2.89; R 2.74; T 2.38; V 3.01; E 2.23; F 1.8; C 2.06; Y 1.72; H 2.21; K 2.99
V6: P 4.09; F 2.29; C 2.41; T 2.34; N 2.4; S 1.64; A 2.91; H 2.71; R 2.91; I 1.55; Y 1.77; G 3.34; D 2.3
N19: I 2.02; W 2.86; C 3.04; K 1.94; D 3.79; R 1.76; F 2.16
A8: Q 2.38; W 2.17; C 1.93; F 2.35; K 3.29; V 1.9; E 2.63; D 2.8; T 1.69; P 2.42; G 3.13; R 2.57
L3: S 2.57; A 2.59; P 2.48; K 2.34; Q 2.45; N 2.09; W 1.48; V 2.8; F 2.73; C 2.33; G 2.58; T 2.2
D2: M 2.09; Y 2; L 1.24; T 2.31; P 2.45; I 1.85; K 2.3; A 2.37; G 2.56; E 1.72; F 2.48; V 1.13; N 2.22
T4: Y 1.43; S 2.43; A 1.91; N 2.3; Q 2.32; L 2.62; I 2.2; M 2.24; P 1.56; C 1.86; K 2.15
L22: C 1.91; G 3.13; A 3.25; E 2.77; R 3.01; W 2.4; V 2.61; Q 3.21; H 2.95; Y 2.7; I 1.99; K 3.74; D 3.95; F 2.36; S 3.6
R12: K 2.01; Q 2.13; Y 1.9; H 2.58; W 1.92; C 1.95; D 2.5; S 2.1; I 1.23; M 1.64; T 1.73; V 2.06; G 1.85; L 1.67; A 2.07; F 1.99; N 2.42
I15: M 1.87; L 2.23; N 2.71; G 3; Y 2.57; Q 3.66; K 3.5; W 2.34; P 4.26; V 3.05; E 3.83; T 2.94; R 3.71
Q23: R 2.23; S 2.63; T 2.08; G 2.5; A 1.57; D 2.33; C 1.91; L 2.15; K 2.38; V 1.34; M 2.43
R20: P 2.79; C 2.06; N 2.4; A 1.9; W 1.37; Y 1.74; F 2.43; K 1.02; G 2.04; V 1.9; E 2.02; Q 1.85; D 2.82
V5: Q 2.26; Y 2.17; I 2.66; R 1.7; D 2.37; P 2.42; M 2.05; F 1.72; N 2.61; W 1.93; S 2.5; K 2.47; T 2.69; C 1.72
S10: M 1.42; W 3.84; H 2.02; K 1.79; P 2.89; D 2.05; F 2.32; N 2.28; E 2.13; L 1.24; G 2.3
Q14: R 2.58; I 2.3; T 3.2; D 2.16; F 1.51; M 1.04; P 3.56; S 2.11; Y 1.54; C 2.27; A 1.82; H 1.57
D1: T 1.78; A 2.08; V 2.39; N 2.1; F 2.42; C 2.04; H 1.84; P 2.05; L 1.61; M 1.98; R 2.45
I16: C 1.69; M 1.67; Q 1.98; A 2.48; P 3.66; D 2.85; R 3.58; G 1.64; H 2.26; S 1.52
L11: H 3.19; V 3.05; D 3.79; T 3.39; W 2.84; E 3.7; P 3.33; Q 3.24; M 2.51; K 3.28; S 3.73
A9: I 2.79; F 1.58; K 2.31; S 2.2; C 2.03; N 2.42; L 2.08; E 2.13; Y 2.48; G 2.11; Q 2.22
L18: C 1.62; K 3.31; P 3.42; I 3.42; Y 3.26; N 3.39; D 4.13; G 2.48; R 3.73; W 1.84; A 1.86; V 1.95
K17: Y 1.89; G 1.99; N 2.2; P 3.72; W 1.74; R 2.24; V 1.66; D 1.85

Source: the supplement of paper PMC10567573
